According to article PMC4186791, “The Intrinsically Disordered Regions of the Drosophila melanogaster Hox Protein Ultrabithorax Select Interacting Proteins Based on Partner Topology” (PLoS ONE, 2014):

Key:
[1] = target: T1, UbxIb Δ103–216 (Drosophila melanogaster, UniProt P83949 1-389, Δ103-216); assay: two-hybrid; LexA-Ubx variant (pLexA) and B42-partner (pB42) co-transformed into S. cerevisiae EGY48 carrying p8op-LacZ; blue/white colonies on X-gal and liquid β-galactosidase (ONPG) assay after galactose induction at 30°C, reported in Miller units; conditions: partners not purified
T1 construct: source: yeast two-hybrid fusion (pLexA, S. cerevisiae EGY48)
T1 sequence (P83949 other isoform, or with tags, fused parts or gaps Δ103-216 | Δ103-216 | mutant): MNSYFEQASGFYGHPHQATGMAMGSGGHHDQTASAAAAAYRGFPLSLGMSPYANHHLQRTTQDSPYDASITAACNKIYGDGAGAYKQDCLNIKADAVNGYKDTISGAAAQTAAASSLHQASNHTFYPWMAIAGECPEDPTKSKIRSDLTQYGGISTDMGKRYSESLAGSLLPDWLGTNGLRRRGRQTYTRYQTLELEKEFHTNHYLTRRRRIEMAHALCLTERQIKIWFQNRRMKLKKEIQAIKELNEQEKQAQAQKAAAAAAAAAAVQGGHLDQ

[2] = target: T2, UbxIb N103 Pro4 (Drosophila melanogaster, UniProt P83949 1-389, amino acids 2–102 removed (N103) | A226P | Q233P); assay: as above; conditions: partners not purified
T2 construct: Ultrabithorax (Ubx), Drosophila melanogaster, isoform Ib, from which amino acids 2–102 (Region 1) are removed, with the Pro4 mutations; Form is the full-length isoform Ib less the stated deletion; also called UbxIb N103 Pro4 (0, D2,0, D4, S5); source: yeast two-hybrid fusion (pLexA, S. cerevisiae EGY48)
T2 sequence (P83949 other isoform, or with tags, fused parts or gaps with the stated changes): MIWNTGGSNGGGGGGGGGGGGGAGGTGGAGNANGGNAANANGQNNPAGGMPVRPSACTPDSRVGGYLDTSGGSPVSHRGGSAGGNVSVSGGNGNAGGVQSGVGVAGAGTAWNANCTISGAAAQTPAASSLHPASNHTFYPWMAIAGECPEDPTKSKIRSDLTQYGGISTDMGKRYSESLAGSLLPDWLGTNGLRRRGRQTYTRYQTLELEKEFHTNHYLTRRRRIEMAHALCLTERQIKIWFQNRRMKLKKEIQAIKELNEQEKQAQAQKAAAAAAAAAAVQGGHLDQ

| Binder | percent of reporter signal lost relative to UbxIb Pro4 [1] | percent of reporter signal lost relative to UbxIb Pro4 [2] |
| --- | --- | --- |
| 14-3-3ε (natural protein, Drosophila melanogaster, UniProt P92177 1-262, looked up, 14-3-3ε, Drosophila melanogaster; source: yeast two-hybrid fusion (pB42, S. cerevisiae EGY48)) MTERENNVYKAKLAEQAERYDEMVEAMKKVASMDVELTVEERNLLSVAYKNVIGARRASWRIITSIEQKEENKGAEEKLEMIKTYRGQVEKELRDICSDILNVLEKHLIPCATSGESKVFYYKMKGDYHRYLAEFATGSDRKDAAENSLIAYKAASDIAMNDLPPTHPIRLGLALNFSVFYYEILNSPDRACRLAKAAFDDAIAELDTLSEESYKDSTLIMQLLRDNLTLWTSDMQAEEVDPNAGDGEPKEQIQDVEDQDVS | ≥ 59% | ≥ 59% |
| Ribosomal protein L22 (natural protein, Ribosomal protein L22 (RpL22), Drosophila melanogaster; also called RpL22; source: yeast two-hybrid fusion (pB42, S. cerevisiae EGY48)) not shown | ≥ 59% | ≥ 59% |
| Dishevelled (natural protein, Drosophila melanogaster, UniProt P51140 1-623, looked up, Dishevelled (Dsh), Drosophila melanogaster; also called Dsh; source: yeast two-hybrid fusion (pB42, S. cerevisiae EGY48)) MDADRGGGQETKVIYHIDDETTPYLVKIPIPSAQVTLRDFKLVLNKQNNNYKYFFKSMDADFGVVKEEIADDSTILPCFNGRVVSWLVSADGTNQSDNCSELPTSECELGMGLTNRKLQQQQQQHQQQQQQQQQQHQQQQQQQQQQVQPVQLAQQQQQQVLHHQKMMGNPLLQPPPLTYQSASVLSSDLDSTSLFGTESELTLDRDMTDYSSVQRLQVRKKPQRRKKRAPSMSRTSSYSSITDSTMSLNIITVSINMEAVNFLGISIVGQSNRGGDGGIYVGSIMKGGAVALDGRIEPGDMILQVNDVNFENMTNDEAVRVLREVVQKPGPIKLVVAKCWDPNPKGYFTIPRTEPVRPIDPGAWVAHTQALTSHDSIIADIAEPIKERLDQNNLEEIVKAMTKPDSGLEIRDRMWLKITIPNAFIGADAVNWVLENVEDVQDRREARRIVSAMLRSNYIKHTVNKLTFSEQCYYVVNEERNPNLLGRGHLHPHQLPHGHGGHALSHADTESITSDIGPLPNPPIYMPYSATYNPSHGYQPIQYGIAERHISSGSSSSDVLTSKDISASQSDITSVIHQANQLTIAAHGSNKSSGSSNRGGGGGGGGGGNNTNDQDVSVFNYVL | ≥ 59% | ≥ 59% |
